In this assay the target is recombinant Fc−ICAM-1 (human) (UniProt P05362). The assay is described as follows: BLI; Octet QKe; DBLβ domains on an Fc−ICAM-1 probe; apparent Kd from double-reference-subtracted data of three concentrations, global 1:1 Langmuir fit. A general note: Biolayer interferometry detects binding as a change in optical thickness at a sensor tip.
UniProt P05362, sequence (P05362 28-480): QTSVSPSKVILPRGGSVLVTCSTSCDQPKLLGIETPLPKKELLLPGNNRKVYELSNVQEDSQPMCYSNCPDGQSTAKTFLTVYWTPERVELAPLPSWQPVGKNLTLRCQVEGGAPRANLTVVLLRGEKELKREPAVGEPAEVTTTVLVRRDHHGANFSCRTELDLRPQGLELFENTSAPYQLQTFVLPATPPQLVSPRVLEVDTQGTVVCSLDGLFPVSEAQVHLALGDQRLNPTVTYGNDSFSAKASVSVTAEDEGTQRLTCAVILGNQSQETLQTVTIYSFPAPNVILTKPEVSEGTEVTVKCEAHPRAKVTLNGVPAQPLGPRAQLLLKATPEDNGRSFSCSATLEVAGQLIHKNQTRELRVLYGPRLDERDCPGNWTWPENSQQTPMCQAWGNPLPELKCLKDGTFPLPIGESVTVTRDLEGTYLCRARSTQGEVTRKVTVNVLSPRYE

As for “IT4var07DBLβ1 (N726-C1211) (domain or fragment)”, the Kd turned out to be 8.7 nM.
